The text below walks through data of patent US20140120128A1.

What all share (test): cell-based or functional assay
The target in assay [1] is human TLR2 expressed on HEK293 cells (human) (UniProt O60603).
The target of assay [2] is human TLR3 expressed on HEK293 cells (human) (UniProt O15455).
For assay [3], the target named is human TLR4 (MD2-CD14) expressed on HEK293 cells (human) (UniProt O00206).
The target of assay [4] is human TLR5 expressed on HEK293 cells (human) (UniProt O60602).
In assay [5] the target is human TLR7 expressed on HEK293 cells (human) (UniProt Q9NYK1).
Chain of human TLR7 expressed on HEK293 cells (human) (Q9NYK1 27-1049): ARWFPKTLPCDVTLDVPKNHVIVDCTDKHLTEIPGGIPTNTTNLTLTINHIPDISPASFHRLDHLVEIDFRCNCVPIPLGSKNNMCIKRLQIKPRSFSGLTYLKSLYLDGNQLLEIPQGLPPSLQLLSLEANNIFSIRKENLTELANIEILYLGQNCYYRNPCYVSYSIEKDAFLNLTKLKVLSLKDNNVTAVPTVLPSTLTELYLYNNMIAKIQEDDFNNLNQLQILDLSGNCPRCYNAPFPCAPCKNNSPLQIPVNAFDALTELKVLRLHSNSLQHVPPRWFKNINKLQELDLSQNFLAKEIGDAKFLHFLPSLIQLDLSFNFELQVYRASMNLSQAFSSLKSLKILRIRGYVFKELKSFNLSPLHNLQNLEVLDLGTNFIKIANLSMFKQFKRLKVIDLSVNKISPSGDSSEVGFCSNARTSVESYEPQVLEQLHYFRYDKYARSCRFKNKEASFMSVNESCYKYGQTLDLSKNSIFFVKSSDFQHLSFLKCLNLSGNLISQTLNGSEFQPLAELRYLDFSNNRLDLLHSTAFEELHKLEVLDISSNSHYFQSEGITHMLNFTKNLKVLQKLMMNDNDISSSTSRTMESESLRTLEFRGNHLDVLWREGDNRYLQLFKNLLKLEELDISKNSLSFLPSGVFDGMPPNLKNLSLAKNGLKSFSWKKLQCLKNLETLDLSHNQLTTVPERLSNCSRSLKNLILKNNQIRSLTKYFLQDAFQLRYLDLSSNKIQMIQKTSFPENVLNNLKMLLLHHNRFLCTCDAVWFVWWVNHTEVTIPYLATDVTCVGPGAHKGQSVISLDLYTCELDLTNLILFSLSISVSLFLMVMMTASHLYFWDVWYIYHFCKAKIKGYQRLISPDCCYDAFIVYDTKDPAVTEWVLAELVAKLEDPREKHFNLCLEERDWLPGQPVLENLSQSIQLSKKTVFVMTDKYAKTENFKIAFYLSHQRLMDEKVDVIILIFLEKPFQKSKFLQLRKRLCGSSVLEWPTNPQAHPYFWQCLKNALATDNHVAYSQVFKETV
Assay [6] deals with T1, human TLR8 expressed on HEK293 cells (human) (UniProt Q9NR97).
T1 sequence: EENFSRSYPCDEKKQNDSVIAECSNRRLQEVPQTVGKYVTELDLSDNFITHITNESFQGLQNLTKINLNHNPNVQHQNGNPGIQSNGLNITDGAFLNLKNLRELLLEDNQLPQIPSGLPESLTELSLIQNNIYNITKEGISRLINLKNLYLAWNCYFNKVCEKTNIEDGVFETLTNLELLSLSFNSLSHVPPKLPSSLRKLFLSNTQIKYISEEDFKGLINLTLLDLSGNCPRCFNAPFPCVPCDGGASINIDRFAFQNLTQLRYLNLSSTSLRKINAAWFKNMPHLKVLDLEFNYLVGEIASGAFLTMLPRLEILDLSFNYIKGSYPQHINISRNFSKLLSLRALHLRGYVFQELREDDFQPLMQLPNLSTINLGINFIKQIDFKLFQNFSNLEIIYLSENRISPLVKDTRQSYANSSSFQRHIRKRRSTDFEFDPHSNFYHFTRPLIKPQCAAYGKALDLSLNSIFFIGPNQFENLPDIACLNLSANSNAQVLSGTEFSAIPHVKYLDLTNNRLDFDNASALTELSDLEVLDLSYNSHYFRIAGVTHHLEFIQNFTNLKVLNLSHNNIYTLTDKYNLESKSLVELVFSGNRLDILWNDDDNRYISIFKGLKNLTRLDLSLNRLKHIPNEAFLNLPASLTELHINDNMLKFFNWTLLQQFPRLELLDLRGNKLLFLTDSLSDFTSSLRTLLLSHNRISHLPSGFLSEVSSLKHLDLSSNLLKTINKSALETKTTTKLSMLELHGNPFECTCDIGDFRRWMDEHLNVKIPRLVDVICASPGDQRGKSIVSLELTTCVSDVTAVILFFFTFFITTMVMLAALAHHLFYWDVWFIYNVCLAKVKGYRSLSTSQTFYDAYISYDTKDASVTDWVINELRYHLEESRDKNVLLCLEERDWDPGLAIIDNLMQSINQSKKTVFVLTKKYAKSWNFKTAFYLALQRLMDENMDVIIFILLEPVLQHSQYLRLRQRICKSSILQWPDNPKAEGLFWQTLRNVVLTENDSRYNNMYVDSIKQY

Assay [7] has as its target T2, human TLR9 expressed on HEK293 cells (human) (UniProt Q9NR96).
T2 sequence: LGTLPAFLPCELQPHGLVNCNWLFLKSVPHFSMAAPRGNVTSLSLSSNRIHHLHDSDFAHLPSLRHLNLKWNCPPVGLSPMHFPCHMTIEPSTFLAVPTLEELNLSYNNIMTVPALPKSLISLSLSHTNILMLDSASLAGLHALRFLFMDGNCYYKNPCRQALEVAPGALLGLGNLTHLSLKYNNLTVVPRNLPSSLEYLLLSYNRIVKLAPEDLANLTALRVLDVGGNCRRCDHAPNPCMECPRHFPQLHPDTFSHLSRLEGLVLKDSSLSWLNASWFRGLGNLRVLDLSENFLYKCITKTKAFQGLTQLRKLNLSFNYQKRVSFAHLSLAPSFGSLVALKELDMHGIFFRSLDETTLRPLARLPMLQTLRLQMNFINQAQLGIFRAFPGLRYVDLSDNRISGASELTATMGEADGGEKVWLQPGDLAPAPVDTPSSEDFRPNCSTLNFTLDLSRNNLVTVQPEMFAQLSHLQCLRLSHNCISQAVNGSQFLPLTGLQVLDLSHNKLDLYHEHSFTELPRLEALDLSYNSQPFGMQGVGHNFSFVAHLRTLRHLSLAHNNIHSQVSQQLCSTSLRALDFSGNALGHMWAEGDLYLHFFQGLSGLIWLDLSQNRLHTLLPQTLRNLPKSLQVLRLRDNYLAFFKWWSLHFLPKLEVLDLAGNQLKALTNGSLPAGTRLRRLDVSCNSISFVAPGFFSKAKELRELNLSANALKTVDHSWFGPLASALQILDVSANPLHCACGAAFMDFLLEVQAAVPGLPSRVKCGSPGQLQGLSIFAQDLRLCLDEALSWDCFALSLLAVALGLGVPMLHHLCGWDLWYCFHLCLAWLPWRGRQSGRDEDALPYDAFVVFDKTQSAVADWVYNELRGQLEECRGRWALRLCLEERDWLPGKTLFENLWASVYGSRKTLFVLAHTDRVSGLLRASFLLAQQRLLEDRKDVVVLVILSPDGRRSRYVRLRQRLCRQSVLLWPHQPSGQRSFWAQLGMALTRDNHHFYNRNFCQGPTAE

Chain of human TLR4 (MD2-CD14) expressed on HEK293 cells (human) (O00206 24-839 limits assumed, chain 1 of 3): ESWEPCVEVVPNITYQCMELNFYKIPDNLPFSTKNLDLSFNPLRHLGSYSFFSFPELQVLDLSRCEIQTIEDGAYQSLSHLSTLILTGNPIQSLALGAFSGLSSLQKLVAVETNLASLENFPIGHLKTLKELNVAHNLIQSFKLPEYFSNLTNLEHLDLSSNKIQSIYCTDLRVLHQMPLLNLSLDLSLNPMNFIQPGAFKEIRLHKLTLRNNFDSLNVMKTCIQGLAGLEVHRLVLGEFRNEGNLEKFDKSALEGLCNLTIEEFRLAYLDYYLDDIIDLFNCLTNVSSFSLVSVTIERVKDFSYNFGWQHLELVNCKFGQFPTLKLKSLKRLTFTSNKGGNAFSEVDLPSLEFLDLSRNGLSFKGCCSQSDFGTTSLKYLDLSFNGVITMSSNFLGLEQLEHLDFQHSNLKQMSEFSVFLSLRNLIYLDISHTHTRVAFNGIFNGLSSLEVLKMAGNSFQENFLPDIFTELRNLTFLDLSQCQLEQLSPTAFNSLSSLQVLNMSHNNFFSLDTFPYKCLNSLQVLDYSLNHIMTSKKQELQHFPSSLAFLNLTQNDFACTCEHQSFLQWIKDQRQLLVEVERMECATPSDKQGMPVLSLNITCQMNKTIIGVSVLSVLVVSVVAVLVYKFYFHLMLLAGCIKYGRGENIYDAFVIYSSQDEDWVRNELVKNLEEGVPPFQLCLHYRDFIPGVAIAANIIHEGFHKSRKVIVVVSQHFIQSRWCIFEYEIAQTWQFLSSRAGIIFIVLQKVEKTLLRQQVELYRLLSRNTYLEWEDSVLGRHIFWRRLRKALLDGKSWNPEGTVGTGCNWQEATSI
Chain of human TLR4 (MD2-CD14) expressed on HEK293 cells (human) (Q9Y6Y9 19-160 limits assumed, chain 2 of 3, further chain): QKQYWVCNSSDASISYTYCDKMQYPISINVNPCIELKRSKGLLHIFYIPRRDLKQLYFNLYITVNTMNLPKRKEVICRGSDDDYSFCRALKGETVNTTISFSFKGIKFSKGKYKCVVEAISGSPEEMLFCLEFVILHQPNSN
Chain of human TLR4 (MD2-CD14) expressed on HEK293 cells (human) (P08571 20-345 limits assumed, chain 3 of 3, further chain): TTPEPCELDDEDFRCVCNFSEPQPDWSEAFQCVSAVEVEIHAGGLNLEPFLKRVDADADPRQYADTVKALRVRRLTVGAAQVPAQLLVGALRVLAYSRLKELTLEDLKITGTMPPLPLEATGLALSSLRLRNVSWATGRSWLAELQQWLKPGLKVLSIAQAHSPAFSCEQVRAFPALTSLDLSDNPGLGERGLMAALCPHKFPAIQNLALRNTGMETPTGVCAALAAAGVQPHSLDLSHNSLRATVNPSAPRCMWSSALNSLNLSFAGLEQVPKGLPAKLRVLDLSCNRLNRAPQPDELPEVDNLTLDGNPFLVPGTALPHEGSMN
Chain of human TLR2 expressed on HEK293 cells (human) (O60603 21-784): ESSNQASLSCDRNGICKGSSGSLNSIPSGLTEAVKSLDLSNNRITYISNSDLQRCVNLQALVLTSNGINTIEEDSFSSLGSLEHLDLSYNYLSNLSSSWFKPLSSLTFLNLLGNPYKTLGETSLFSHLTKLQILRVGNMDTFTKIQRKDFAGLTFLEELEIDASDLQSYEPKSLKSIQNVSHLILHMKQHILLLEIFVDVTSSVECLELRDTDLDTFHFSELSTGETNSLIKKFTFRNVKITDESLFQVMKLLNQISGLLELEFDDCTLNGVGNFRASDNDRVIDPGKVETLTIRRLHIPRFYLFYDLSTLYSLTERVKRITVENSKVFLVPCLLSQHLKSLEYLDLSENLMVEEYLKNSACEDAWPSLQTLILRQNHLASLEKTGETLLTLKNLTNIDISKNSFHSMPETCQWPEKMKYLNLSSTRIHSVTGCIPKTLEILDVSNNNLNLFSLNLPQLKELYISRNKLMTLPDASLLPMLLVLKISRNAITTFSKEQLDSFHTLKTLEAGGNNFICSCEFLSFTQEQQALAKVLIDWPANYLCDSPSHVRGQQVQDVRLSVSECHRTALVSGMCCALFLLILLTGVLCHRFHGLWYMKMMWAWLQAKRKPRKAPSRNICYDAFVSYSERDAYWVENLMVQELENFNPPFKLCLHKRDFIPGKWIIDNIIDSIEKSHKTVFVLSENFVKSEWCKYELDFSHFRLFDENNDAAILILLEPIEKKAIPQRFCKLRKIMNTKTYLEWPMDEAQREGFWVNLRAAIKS
Chain of human TLR5 expressed on HEK293 cells (human) (O60602 21-858): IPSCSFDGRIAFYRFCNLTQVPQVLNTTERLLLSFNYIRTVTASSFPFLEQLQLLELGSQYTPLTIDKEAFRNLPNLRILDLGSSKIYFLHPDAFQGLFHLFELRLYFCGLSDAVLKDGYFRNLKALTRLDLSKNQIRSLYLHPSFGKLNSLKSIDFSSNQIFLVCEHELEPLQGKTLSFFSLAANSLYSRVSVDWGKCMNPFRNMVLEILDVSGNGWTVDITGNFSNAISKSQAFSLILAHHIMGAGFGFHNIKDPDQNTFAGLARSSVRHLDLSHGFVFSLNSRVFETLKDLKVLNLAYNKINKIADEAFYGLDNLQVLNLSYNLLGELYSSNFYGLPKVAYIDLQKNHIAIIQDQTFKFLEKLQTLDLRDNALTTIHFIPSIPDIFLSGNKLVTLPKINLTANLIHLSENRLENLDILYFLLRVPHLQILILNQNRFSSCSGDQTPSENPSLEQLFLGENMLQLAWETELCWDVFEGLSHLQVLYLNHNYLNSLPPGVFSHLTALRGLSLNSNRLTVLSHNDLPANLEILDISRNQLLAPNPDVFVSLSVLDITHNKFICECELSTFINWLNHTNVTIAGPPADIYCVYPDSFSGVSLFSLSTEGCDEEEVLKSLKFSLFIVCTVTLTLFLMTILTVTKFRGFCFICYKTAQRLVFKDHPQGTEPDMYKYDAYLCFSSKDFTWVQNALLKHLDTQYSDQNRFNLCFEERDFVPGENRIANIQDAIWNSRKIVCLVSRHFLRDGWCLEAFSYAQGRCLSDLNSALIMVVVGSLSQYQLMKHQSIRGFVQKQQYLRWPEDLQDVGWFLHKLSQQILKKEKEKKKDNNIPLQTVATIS

With “wild type YscF (from UniProt O68691 1-87)”, the SEAP reporter expression in HEK293 cells, screening 1 in assay [1] was 0.283; in assay [2], 0.1; in assay [3], 0.98; in assay [4], 0.136; in assay [5], 0.095; in assay [6] it was 0.096. In addition, the SEAP reporter expression in HEK293 cells, screening 1 in assay [7] came to 0.075. Moreover, the SEAP reporter expression in HEK293 cells, screening 2 was found to be 0.272 in assay [1]; 0.093 in assay [2]; 0.861 in assay [3]; 0.139 in assay [4]; 0.094 in assay [5]; 0.095 in assay [6]. This substance had an SEAP reporter expression in HEK293 cells, screening 2 in assay [7] of 0.074.
